B1: Guanyl-specific ribonuclease T1, P00651 (parent)
chain: MMYSKLLTLTTLLLPTALALPSLVERACDYTCGSNCYSSSDVSTAQAAGYQLHEDGETVGSNSYPHKYNNYEGFDFSVSSPYYEWPILSSGDVYSGGSPGADRVVFNENNQLAGVITHTGASGNNFVECT

Variants of: B1
Details: Aspergillus oryzae (strain ATCC 42149 / RIB 40); pH 6.01; 25 °C; Urea; Fluorescence; MES 30 mM; NaCl 0.2 M; structure 1RN1; whole UniProt chain shown

Row | Variant | ddG of mutation (higher = less stable) [kcal/mol] | denaturant m value [kcal/mol/M] | denaturant midpoint (higher = more stable) [M] | unfolding free energy [kcal/mol]
1 | E84A | 0.64 | 1.34 | 5.67 | 7.6

Same assay, conditions: Aspergillus oryzae (strain ATCC 42149 / RIB 40); pH 8.01; 25 °C; Urea; Fluorescence; HEPPSO 30 mM; NaCl 0.2 mM; structure 1RN1; whole UniProt chain shown

Row | Variant | ddG of mutation (higher = less stable) [kcal/mol] | denaturant m value [kcal/mol/M] | denaturant midpoint (higher = more stable) [M] | unfolding free energy [kcal/mol]
2 | E84A | -0.71 | 1.36 | 4.89 | 6.63

Source: FireProtDB (doi:10.1021/bi00485a005)
